{"source": "paper doi:10.1101/2021.07.28.453719", "about": "(bioRxiv, 2021)", "key": {"[1]": {"biological_target": "first bromodomain (BD1) of BRD3, wild type (human, UniProt Q15059)", "sequence (Q15059 24-144)": "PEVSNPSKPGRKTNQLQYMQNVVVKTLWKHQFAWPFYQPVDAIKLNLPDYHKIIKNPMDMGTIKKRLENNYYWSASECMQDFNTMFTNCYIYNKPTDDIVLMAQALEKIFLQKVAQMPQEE", "assay": "ITC"}, "[2]": {"biological_target": "first bromodomain (BD1) of BRD4, wild type (human, UniProt O60885)", "assay": "ITC"}}, "note": "No end group written: not given here."}
{"binder": "AK(Ac)GLLLK(Ac)G", "note": "[diacetylated ILF3 peptide 10 (AKacGLLLKacG)]", "values": [{"measurement": "binding result", "setting": "[1]", "result": "binds"}, {"measurement": "Kd", "setting": "[2]", "result": "167 ± 28", "unit": "µM"}]}
{"binder": "AK(Ac)GALLK(Ac)G", "note": "[ILF3 variant peptide AKacGALLKacG (aa 99-106) 15 carrying L102A]", "values": [{"measurement": "Kd", "setting": "[2]", "result": "60 ± 10", "unit": "µM"}]}
